Measurements reported in US20240277803A1, “NME INHIBITORS AND METHODS OF USING NME INHIBITORS” (Minerva Biotechnologies Corporation, priority 2013, published 2024).

What was measured:
A panel of cancer cells = assay: PCR of stem and cancer stem cell markers in cancer cells cultured in NME proteins; type: cell-based; settings: cell type not given
Method: Another function that NME1 and NME7 have is the ability to transform cancer cells to the more metastatic cancer stem cell state, also called tumor initiating cells. A panel of cancer cells were cultured in a serum-free minimal base media with human NME7-AB or human NME1 dimers (‘NM23’ in figures) as the only growth factor or cytokine. After several days in this media, cells began to float off the surface and continued to grow in solution. The ‘floaters’ were collected and separately analyzed by PCR. Cells in other wells were treated with a rho kinase inhibitor (‘Ri in figures’). Quantitative PCR measurements show an increase of the cancer stem cell markers, some of which used to be thought of as stem cell markers only (Miki J et al 2007, Jeter C R et al 2011, Hong X et al 2012Faber A et al 2013, Mukherjee D et al 2013, Herreros-Villanueva M et al, 2013, Sefah K et al, 2013; Su H-T et al 2013). […] We observed a more modest, but trending, increase in markers of cancer stem cells and metastasis even in cells that were MUC1-negative (FIG. 47). We therefore conclude that NME7 likely is able to enter these cells by a route other than MUC1* wherein it can still act as a transcription factor and affect the expression levels of these genes. […] However, many cancers mutate NME1 so that it resists the formation of the self-replication limiting hexamer. Unlike NME1, NME7 is always active.
Standard methods were used to perform RT-PCR. The primers used are listed below: RNA was isolated using the Trizol® Reagent (Invitrogen) and cDNA was reverse transcribed with Random Hexamers (Invitrogren) using Super Script II (Invitrogen) and subsequently assayed for the genes FOXA2, XIST, KLF2, KLF4, NANOG and OCT4, using Applied Biosystems gene expression assays (OCT4 P/N Hs00999634_gH, Nanog P/N Hs02387400_g1, KLF2 P/N Hs00360439_g1, KLF4 P/N Hs00358836_m1, FOXa2 P/N Hs00232764_m1, OTX2 P/N Hs00222238_m1, LHX2 P/N Hs00180351_m1, XIST P/N Hs01079824 ml and GAPDH P/N 4310884E), on an Applied Biosystems 7500 real-time instrument. Each sample was run in triplicate. Gene expression was normalized to GAPDH. Data are expressed as a fold change relative to control.

T47D breast cancer cells [1] = assay: RT-PCR of T47D cells cultured in 2i inhibitors and/or NME7-AB (FIGS. 48, 49); type: cell-based
Method: 2i inhibitors, which are small molecule inhibitors of GSK3-beta and MEK of the MAP kinase signaling pathway, have been reported (Silva J et al, 2008) to revert mouse primed stem cells to the naïve state. We wondered whether these inhibitors could also revert human cancer cells to the cancer stem cell state. T47D breast cancer cells were cultured for 10 days in a serum-free minimal base media with the 2i inhibitors added or in the same base media with human recombinant NME7-AB added, or both NME7-AB and 2i. […] The relative potency of inducing the cancer stem cell markers was NME7>NME7+2i>2i (FIG. 48).

T47D breast cancer cells [2] = assay: engraftment and growth of T47D cells mixed with NME7-AB in mice (FIG. 51); type: in vivo, Immune-compromised mice
Excerpt: For example, some cancer cells are very difficult to engraft in animals. We increased the engraftment rate of cancer cells by several fold by injecting the animal with human NME7 or NME7-AB. Immune-compromised mice were implanted with T47D breast cancer cells that were mixed 50/50 vol/vol with either Matrigel or NME7-AB. After 10 days, the mice that had received the NME7 mixed cells were additionally injected with NME7-AB every day (FIG. 51). […] Engraftment rates, decreased numbers of required cells and a faster tumor growth rate resulted when NME7-AB was mixed with the cancer cells when implanted and when the mice were injected every 24 or 48 hours after implantation. A range of ratios of cancer cells to NME7 or the injection schedule of NME7 is expected to vary from one mouse strain to another and from one tumor type to another. In an improvement over this method, animals that are transgenic for human NME7 or NME7-AB greatly increase engraftment rates of cancer cells and thus, decrease the number of cells required to develop into a tumor in an animal. This allows growth of primary patient cancer cells in an animal expressing human NME7 or NME7-AB.

B1: NME7-AB: recombinant human NME7 of NDPK A and B domains without the DM10 leader sequence, ~33 kDa (SEQ ID NO:39) (protein, listed as Homo sapiens)
chain: MEKTLALIKPDAISKAGEIIEIINKAGFTITKLKMMMLSRKEALDFHVDHQSRPFFNELIQFITTGPIIAMEILRDDAICEWKRLLGPANSGVARTDASESIRALFGTDGIRNAAHGPDSFASAAREMELFFPSSGGCGPANTAKFTNCTCCIVKPHAVSEGLLGKILMAIRDAGFEISAMQMFNMDRVNVEEFYEVYKGVVTEYHDMVTEMYSGPCVAMEIQQNNATKTFREFCGPADPEIARHLRPGTLRAIFGKTKIQNAVHCTDLPEDGLLEVQYFFKILDN
modifications: Human NME7-AB
up-regulation of KLF4 (A panel of cancer cells): 4 X
up-regulation of MUC1 (A panel of cancer cells): 10 X
up-regulation of NANOG (A panel of cancer cells): ~10 X
up-regulation of OCT4 (A panel of cancer cells): ~50 X
up-regulation of SOX2 (A panel of cancer cells): > 150 X
up-regulation of cancer stem cell marker CXCR4 (A panel of cancer cells): ~200 X
up-regulation of cancer stem cell marker E-cadherin (CDH1) (A panel of cancer cells): up-regulates
expression of CDH1, CXCR4, OCT4, SOX2 and NANOG (T47D breast cancer cells [1]; T47D cultured for 10 days in serum-free minimal base media, FIG. 48): greatly up-regulated
expression of BRD4, JMJD6, MBD3 and CHD4 (T47D breast cancer cells [1]; T47D, FIG. 49): similarly down-regulated
engraftment rate of cancer cells (T47D breast cancer cells [2]; animal injected with human NME7 or NME7-AB): several fold
tumor size and growth rate (T47D breast cancer cells [2]; cells mixed 50/50 vol/vol with NME7-AB, then injected every day, tumor promotion): larger tumors that grew at an accelerated rate
